Laboratory results taken from patent US20160331662A1 (UAB RESEARCH FOUNDATION, published 2016).

Experiments:
[1] = target: the molecule itself; assay: SPR, analyte over immobilized iSRCR123; quantity and unit not printed beside the number, told as 'nanomolar affinities'
C123^AgI/II = target: T1, C123^AgI/II (Streptococcus mutans UA159, UniProt P23504 1000-1486); assay: SPR, analyte over ligand immobilized on CM5 chip, 1:1 Langmuir model
T1 construct: domain: C123
T1 sequence: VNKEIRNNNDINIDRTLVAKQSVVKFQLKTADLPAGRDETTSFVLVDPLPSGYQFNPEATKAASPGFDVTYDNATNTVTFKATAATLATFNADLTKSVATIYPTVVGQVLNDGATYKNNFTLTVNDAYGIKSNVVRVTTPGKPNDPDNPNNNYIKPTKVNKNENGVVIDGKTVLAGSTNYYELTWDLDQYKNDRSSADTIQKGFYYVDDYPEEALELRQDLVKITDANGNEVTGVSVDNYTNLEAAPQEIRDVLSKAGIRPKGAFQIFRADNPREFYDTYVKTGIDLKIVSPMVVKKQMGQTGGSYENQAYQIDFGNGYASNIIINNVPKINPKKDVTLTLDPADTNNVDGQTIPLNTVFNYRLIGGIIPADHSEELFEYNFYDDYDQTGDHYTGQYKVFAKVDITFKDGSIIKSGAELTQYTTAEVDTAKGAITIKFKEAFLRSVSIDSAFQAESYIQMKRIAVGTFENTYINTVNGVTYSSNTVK

[2] = target: T2, FL^SspB (S. gordonii DL1 SspB, residues 39-1433) (Streptococcus gordonii DL1, UniProt P16952 39-1433); assay: as above
T2 construct: range 39-1433
T2 sequence: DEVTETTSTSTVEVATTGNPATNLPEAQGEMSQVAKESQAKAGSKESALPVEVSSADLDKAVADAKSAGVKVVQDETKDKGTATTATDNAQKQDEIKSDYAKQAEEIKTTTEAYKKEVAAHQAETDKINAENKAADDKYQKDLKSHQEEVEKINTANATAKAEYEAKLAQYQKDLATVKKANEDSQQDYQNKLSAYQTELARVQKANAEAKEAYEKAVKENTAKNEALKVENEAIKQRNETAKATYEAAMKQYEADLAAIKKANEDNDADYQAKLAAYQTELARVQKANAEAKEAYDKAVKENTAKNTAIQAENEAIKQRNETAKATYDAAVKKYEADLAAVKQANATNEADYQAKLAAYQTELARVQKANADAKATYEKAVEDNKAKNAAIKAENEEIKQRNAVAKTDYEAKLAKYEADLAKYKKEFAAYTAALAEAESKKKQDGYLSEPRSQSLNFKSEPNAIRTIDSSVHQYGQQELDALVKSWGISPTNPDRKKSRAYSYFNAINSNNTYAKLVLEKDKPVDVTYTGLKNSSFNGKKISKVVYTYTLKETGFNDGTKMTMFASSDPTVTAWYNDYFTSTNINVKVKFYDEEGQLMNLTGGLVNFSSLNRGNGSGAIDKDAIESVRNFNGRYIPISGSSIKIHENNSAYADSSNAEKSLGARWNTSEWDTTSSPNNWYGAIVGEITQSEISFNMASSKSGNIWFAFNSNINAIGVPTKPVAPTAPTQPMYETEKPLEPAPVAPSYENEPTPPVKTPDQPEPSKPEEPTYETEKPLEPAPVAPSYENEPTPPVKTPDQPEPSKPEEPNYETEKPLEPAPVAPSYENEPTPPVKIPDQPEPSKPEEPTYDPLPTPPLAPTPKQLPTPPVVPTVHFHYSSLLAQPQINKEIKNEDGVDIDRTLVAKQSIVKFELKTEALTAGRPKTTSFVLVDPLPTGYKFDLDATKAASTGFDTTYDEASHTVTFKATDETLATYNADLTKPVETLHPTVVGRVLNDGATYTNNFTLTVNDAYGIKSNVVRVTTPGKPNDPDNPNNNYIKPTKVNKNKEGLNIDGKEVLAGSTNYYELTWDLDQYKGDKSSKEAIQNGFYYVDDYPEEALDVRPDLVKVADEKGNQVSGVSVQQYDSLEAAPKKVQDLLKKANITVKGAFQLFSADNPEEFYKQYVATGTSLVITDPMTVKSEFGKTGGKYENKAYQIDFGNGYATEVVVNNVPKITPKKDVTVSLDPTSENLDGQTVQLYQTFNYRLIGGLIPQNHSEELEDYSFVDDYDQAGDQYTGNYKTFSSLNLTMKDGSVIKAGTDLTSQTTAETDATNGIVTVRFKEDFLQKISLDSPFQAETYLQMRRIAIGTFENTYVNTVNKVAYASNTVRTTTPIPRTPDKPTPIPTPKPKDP

A3VP1^AgI/II = target: T3, A3VP1^AgI/II (Streptococcus mutans UA159, UniProt P23504 386-874); assay: as above
T3 construct: domain: A3VP1; also called A3VP1 of AgI/II
T3 sequence: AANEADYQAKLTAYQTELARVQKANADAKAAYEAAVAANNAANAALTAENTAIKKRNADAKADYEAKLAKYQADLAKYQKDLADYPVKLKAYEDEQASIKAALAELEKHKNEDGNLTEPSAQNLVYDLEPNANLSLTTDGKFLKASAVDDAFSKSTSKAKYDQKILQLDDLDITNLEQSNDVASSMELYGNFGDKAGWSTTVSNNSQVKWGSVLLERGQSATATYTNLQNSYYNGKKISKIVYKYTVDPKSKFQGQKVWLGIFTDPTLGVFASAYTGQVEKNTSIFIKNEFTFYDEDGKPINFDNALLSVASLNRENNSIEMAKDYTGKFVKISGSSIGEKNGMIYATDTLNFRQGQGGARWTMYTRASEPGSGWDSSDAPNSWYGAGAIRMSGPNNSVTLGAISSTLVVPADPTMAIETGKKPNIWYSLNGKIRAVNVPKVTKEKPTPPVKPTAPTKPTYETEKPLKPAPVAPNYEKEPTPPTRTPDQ

[3] = target: T4, FL^AgI/II (S. mutans UA159 Antigen I/II, full length recombinant construct) (Streptococcus mutans UA159, UniProt P23504 39-1562); assay: as above
T4 construct: also called CG14
T4 sequence (P23504 39-1562): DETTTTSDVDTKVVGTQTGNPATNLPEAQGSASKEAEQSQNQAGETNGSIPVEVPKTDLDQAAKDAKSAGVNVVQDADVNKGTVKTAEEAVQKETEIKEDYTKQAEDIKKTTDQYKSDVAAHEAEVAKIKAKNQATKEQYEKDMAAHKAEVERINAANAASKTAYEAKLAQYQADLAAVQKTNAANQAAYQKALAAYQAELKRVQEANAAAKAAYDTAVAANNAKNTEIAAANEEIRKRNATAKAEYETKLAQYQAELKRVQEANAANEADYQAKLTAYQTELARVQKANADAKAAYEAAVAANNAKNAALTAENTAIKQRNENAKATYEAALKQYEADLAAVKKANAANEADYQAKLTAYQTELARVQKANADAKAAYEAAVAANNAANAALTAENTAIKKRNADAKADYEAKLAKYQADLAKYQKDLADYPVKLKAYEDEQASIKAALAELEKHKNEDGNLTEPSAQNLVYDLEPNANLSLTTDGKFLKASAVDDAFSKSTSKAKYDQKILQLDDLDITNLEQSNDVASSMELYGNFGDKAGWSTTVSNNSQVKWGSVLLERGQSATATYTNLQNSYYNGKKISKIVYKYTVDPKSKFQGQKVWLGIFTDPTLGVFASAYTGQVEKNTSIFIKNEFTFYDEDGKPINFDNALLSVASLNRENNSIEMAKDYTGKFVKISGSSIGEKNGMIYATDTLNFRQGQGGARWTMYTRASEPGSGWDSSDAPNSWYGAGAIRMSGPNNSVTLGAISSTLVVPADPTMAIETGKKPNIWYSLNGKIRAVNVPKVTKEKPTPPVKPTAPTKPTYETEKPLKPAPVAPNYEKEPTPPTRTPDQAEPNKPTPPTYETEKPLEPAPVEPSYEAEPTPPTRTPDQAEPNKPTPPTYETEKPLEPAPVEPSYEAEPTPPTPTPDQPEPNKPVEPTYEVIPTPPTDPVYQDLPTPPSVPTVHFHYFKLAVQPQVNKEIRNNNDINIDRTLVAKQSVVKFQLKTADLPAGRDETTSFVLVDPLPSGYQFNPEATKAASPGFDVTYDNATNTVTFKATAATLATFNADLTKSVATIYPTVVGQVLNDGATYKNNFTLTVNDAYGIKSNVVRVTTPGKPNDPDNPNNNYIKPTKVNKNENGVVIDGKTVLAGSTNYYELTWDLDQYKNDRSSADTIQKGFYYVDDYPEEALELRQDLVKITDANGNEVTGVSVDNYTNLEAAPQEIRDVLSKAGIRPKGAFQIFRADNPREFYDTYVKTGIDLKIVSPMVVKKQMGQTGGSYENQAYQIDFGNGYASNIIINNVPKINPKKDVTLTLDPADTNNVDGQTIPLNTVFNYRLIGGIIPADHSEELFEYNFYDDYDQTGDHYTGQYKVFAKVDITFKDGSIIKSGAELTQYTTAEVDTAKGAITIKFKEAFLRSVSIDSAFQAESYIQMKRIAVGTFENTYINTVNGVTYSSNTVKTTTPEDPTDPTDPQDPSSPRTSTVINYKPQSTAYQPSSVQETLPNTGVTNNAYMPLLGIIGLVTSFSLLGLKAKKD

B1: iSRCR123 (receptor, not shown: small tags and cut ends)
chain: not shown
notes: domain: SRCR123; also called SRCRs; iSRCRs
- Kd [1]: 6.72 nM
- Ka (C123^AgI/II): 1.15e+07 M⁻¹
- Kd (C123^AgI/II): 87 nM
- koff (C123^AgI/II): 0.000721 s⁻¹
- kon (C123^AgI/II): 8290 M⁻¹ s⁻¹
- Ka [2]: 2.38e+07 M⁻¹
- Kd [2]: 42.1 nM
- koff [2]: 0.000759 s⁻¹
- kon [2]: 18200 M⁻¹ s⁻¹
- Ka (A3VP1^AgI/II): 7.98e+06 M⁻¹
- Kd (A3VP1^AgI/II): 125 nM
- koff (A3VP1^AgI/II): 0.00249 s⁻¹
- kon (A3VP1^AgI/II): 19900 M⁻¹ s⁻¹
- Ka [3]: 1.34e+08 M⁻¹
- Kd [3]: 7.46 nM
- koff [3]: 0.000743 s⁻¹
- kon [3]: 99700 M⁻¹ s⁻¹
